How the values were obtained:
RSVF-multi-4 K29L = assay: SPR
[1] = molecular target: prefusion RSVF sc9-10 DS-Cav1-A149C;Y458C;S46G;E92D;S215P;K465Q thermostabilized variant (DS2) (respiratory syncytial virus) (UniProt P03420); assay: SPR

motavizumab Fab, sequence (VH): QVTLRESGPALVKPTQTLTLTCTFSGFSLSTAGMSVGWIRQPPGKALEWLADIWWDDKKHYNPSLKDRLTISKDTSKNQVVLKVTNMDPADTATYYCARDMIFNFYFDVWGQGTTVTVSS
motavizumab Fab, sequence (VL): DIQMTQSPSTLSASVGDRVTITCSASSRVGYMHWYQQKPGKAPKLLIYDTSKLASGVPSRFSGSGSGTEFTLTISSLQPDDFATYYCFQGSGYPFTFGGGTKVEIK

## RSV90 Fab
RSVF-multi-4 K29L
  Kd: > 1000 nM
[1]
  Kd: 0.9 nM

## motavizumab Fab
[1]
  Kd: 0.015 nM

Source: PMC13038408
